Where “and” joins values, the source holds several entries; their conditions need not be identical. Equal entries are not always repeated.
Experiments:
[1] = molecular target: S36A mutant human apolipoprotein A-I, recombinant (human); experiment: AUC
[2] = molecular target: S36A mutant human apolipoprotein A-I, recombinant (human); experiment: cross-linking
[3] = molecular target: wild-type (WT) human apolipoprotein A-I, recombinant (human) (UniProt P02647); experiment: AUC
[4] = molecular target: wild-type (WT) human apolipoprotein A-I, recombinant (human) (UniProt P02647); experiment: native gel or EMSA

| Ka [1] [M⁻¹] | stoichiometry N [1] | stoichiometry N [2] | Ka [3] [M⁻¹] | stoichiometry N [4] | Substance |
| --- | --- | --- | --- | --- | --- |
| 6.12e+14 | 4 | 2 |  |  | S36A mutant human apolipoprotein A-I, recombinant (natural protein) |
|  |  |  | 8.56e+14 | 2 and 4 | wild-type (WT) human apolipoprotein A-I, recombinant (from UniProt P02647 19-267) (natural protein) |
